Results taken from patent US20240252628A1 (ACCELERON PHARMA, published 2024).
Read-outs that look alike come from different tables or passages of the source.

B3: BMP10 (ligand, UniProt O95393 317-424, looked up)
chain: NAKGNYCKRTPLYIDFKEIGWDSWIIAPPGYEAYECRGVCNYPLAEHLTPTKHAIIQALVHLKNSQKASKACCVPTKLEPISILYLDKGVVTYKFKYEGMAVSECGCR
B5: GDF11 (ligand, UniProt O95390 299-407, looked up)
chain: NLGLDCDEHSSESRCCRYPLTVDFEAFGWDWIIAPKRYKANYCSGQCEYMFMQKYPHTHLVQQANPRGSAGPCCTPTKMSPINMLYFNDKQQIIYGKIPGMVVDRCGCS
notes: also called BMP11

Legend:
activin A [1] = biological target: T1, activin A (UniProt P08476 311-426); assay: SPR (Biacore), anti-Fc capture of receptor
T1 construct: The same holds for m2-m11
T1 sequence (looked up): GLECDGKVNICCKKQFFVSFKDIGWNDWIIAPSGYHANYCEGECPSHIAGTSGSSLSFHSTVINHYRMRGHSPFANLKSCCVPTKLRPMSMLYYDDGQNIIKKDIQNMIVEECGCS
Description: (§1) A Biacore™-based binding assay was used to compare ligand binding selectivity of the ActRIIB-Fc:ALK4-Fc heterodimeric complex described above with that of ActRIIB-Fc and ALK4-Fc homodimer complexes. The ActRIIB-Fc:ALK4-Fc heterodimer, ActRIIB-Fc homodimer, and ALK4-Fc homodimer were independently captured onto the system using an anti-Fc antibody. Ligands were injected and allowed to flow over the captured receptor protein. Results are summarized in the table below, in which ligand off-rates (kd) most indicative of effective ligand traps are denoted in bold.

BMP9 [2] = biological target: T2, BMP9 (UniProt Q9UK05 320-429); assay: SPR (Biacore), anti-Fc capture of receptor
T2 construct: also called GDF2
T2 sequence (looked up): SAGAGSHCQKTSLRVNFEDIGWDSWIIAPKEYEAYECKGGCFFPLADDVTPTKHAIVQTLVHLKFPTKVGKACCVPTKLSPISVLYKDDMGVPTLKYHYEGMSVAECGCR
Description: as §1

BMP10 [3] = biological target: B3; assay: SPR (Biacore), anti-Fc capture of receptor
Description: as §1

activin B [4] = biological target: T3, activin B (UniProt P09529 293-407); assay: SPR (Biacore), anti-Fc capture of receptor
T3 sequence (looked up): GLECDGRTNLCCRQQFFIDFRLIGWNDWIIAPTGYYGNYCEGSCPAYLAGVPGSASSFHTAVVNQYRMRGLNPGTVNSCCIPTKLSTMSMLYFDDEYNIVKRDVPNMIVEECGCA
Description: as §1

GDF3 [5] = biological target: T4, GDF3 (UniProt Q9NR23 251-364); assay: SPR (Biacore), anti-Fc capture of receptor
T4 sequence (looked up): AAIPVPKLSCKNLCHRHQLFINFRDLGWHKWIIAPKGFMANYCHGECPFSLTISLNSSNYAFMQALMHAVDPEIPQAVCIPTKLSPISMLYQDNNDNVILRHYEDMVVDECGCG
Description: as §1

GDF8 [6] = biological target: T5, GDF8 (UniProt O14793 267-375); assay: SPR (Biacore), anti-Fc capture of receptor
T5 construct: also called myostatin
T5 sequence (looked up): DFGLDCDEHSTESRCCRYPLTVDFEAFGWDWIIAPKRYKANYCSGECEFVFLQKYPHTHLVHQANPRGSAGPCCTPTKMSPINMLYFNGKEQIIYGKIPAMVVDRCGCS
Description: as §1

GDF11 [7] = biological target: B5; assay: SPR (Biacore), anti-Fc capture of receptor
Description: as §1

BMP6 [8] = biological target: T6, BMP6 (UniProt P22004 382-513, limits assumed); assay: SPR (Biacore), anti-Fc capture of receptor
T6 sequence (looked up): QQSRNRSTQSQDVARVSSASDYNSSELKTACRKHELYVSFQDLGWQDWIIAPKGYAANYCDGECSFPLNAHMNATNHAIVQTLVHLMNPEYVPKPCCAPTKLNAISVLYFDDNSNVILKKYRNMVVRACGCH
Description: as §1

activin A [9] = biological target: T1, activin A; assay: SPR (Biacore), anti-Fc capture of receptor; remark: listed apart in the source
Description: (§2) A Biacore™-based binding assay was used to compare ligand binding selectivity of the ActRIIB-Fc:ALK7-Fc heterodimeric complex described above with that of ActRIIB-Fc and ALK7-Fc homodimeric complexes. The ActRIIB-Fc:ALK7-Fc heterodimer, ActRIIB-Fc homodimer, and ALK7-Fc homodimer were independently captured onto the system using an anti-Fc antibody. Ligands were injected and allowed to flow over the captured receptor protein. Results are summarized in the table below, in which ligand off-rates (kd) most indicative of effective ligand traps are denoted by in bold.

BMP9 [10] = biological target: T2, BMP9; assay: SPR (Biacore), anti-Fc capture of receptor; remark: listed apart in the source
Description: as §2

BMP10 [11] = biological target: B3; assay: SPR (Biacore), anti-Fc capture of receptor; remark: listed apart in the source
Description: as §2

activin B [12] = biological target: T3, activin B; assay: SPR (Biacore), anti-Fc capture of receptor; remark: listed apart in the source
Description: as §2

activin C = biological target: T7, activin C (UniProt P55103 237-352); assay: SPR (Biacore), anti-Fc capture of receptor
T7 sequence (looked up): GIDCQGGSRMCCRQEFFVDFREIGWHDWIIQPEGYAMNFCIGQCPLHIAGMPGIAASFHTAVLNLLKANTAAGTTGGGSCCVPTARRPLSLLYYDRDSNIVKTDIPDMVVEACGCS
Description: as §2

activin AC = biological target: T8, activin AC (UniProt P08476 311-426; P55103 237-352); assay: SPR (Biacore), anti-Fc capture of receptor
T8 sequence (looked up) 1: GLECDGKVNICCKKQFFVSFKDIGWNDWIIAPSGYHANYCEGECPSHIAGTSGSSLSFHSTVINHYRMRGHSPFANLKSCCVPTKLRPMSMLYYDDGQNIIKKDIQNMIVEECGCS
T8 sequence (looked up) 2: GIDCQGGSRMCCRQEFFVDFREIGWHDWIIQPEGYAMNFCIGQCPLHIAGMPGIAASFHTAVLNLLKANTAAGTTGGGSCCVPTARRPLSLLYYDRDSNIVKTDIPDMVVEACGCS
Description: as §2

GDF3 [13] = biological target: T4, GDF3; assay: SPR (Biacore), anti-Fc capture of receptor; remark: listed apart in the source
Description: as §2

GDF8 [14] = biological target: T5, GDF8; assay: SPR (Biacore), anti-Fc capture of receptor; remark: listed apart in the source
Description: as §2

GDF11 [15] = biological target: B5; assay: SPR (Biacore), anti-Fc capture of receptor; remark: listed apart in the source
Description: as §2

BMP5 = biological target: T9, BMP5 (UniProt P22003 317-454, limits assumed); assay: SPR (Biacore), anti-Fc capture of receptor
T9 sequence (looked up): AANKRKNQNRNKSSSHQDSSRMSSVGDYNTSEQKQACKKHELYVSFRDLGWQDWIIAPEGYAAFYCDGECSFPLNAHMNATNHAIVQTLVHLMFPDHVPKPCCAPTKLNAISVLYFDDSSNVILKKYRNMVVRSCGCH
Description: as §2

BMP6 [16] = biological target: T6, BMP6; assay: SPR (Biacore), anti-Fc capture of receptor; remark: listed apart in the source
Description: as §2

ActRIIA-mFc [17] = biological target: T10, ActRIIA-mFc (human, UniProt P27037 21-135); assay: similar binding assay (SPR)
T10 construct: not shown: minimal linker and mouse Fc domain
T10 sequence (P27037 21-135): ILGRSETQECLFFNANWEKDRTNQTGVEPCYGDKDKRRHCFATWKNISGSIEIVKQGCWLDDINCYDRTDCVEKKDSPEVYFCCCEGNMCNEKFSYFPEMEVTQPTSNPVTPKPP
Description: (§3) GDF11 or activin A were immobilized on a Biacore™ CM5 chip using standard amine-coupling procedure. ActRIIA-hFc and ActRIIA-mFc proteins were loaded onto the system, and binding was measured. […] See FIG. 15A-B. Using a similar binding assay, ActRIIA-hFc was determined to have high to moderate affinity for other TGF-beta superfamily ligands including, for example, activin B, GDF8, BMP6, and BMP10. ActRIIA-mFc behaved similarly.

ActRIIA-mFc [18] = biological target: T10, ActRIIA-mFc; assay: SPR (Biacore), ligand amine-coupled on CM5 chip
Description: as §3

B1: ActRIIB-Fc:ALK4-Fc heterodimer (Fc fusion)
chain 1: GRGEAETRECIYYNANWELERTNQSGLERCEGEQDKRLHCYASWRNSSGTIELVKKGCWLDDFNCYDRQECVATEENPQVYFCCCEGNFCNERFTHLPEAGGPEVTYEPPPTAPTGGGTHTCPPCPAPELLGGPSVFLFPPKPKDTLMISRTPEVTCVVVDVSHEDPEVKFNWYVDGVEVHNAKTKPREEQYNSTYRVVSVLTVLHQDWLNGKEYKCKVSNKALPAPIEKTISKAKGQPREPQVYTLPPSRKEMTKNQVSLTCLVKGFYPSDIAVEWESNGQPENNYKTTPPVLKSDGSFFLYSKLTVDKSRWQQGNVFSCSVMHEALHNHYTQKSLSLSPGK
chain 2: SGPRGVQALLCACTSCLQANYTCETDGACMVSIFNLDGMEHHVRTCIPKVELVPAGKPFYCLSSEDLRNTHCCYTDYCNRIDLRVPSGHLKEPEHPSMWGPVETGGGTHTCPPCPAPELLGGPSVFLFPPKPKDTLMISRTPEVTCVVVDVSHEDPEVKFNWYVDGVEVHNAKTKPREEQYNSTYRVVSVLTVLHQDWLNGKEYKCKVSNKALPAPIEKTISKAKGQPREPQVYTLPPSREEMTKNQVSLTCLVKGFYPSDIAVEWESNGQPENNYDTTPPVLDSDGSFFLYSDLTVDKSRWQQGNVFSCSVMHEALHNHYTQKSLSLSPG
notes: the receptor domains are the same in all; also called ALK4-Fc:ActRIIB-Fc heterodimer; ActRIIB-Fc:ALK4-Fc heterodimeric complex
Activin A [1]
  Kd: 0.012 nM
  koff: 0.00015 s⁻¹
  kon: 1.3e+07 M⁻¹ s⁻¹
BMP9 [2]
  Kd: 3.4 nM
BMP10 [3]
  Kd: 0.074 nM
  koff: 0.0041 s⁻¹
  kon: 5.6e+07 M⁻¹ s⁻¹
Activin B [4]
  Kd: 0.006 nM
  koff: 4e-05 s⁻¹
  kon: 7.1e+06 M⁻¹ s⁻¹
GDF3 [5]
  Kd: 4.9 nM
  koff: 0.017 s⁻¹
  kon: 3.4e+06 M⁻¹ s⁻¹
GDF8 [6]
  Kd: 0.55 nM
  koff: 0.00021 s⁻¹
  kon: 390000 M⁻¹ s⁻¹
GDF11 [7]
  Kd: 0.003 nM
  koff: 0.00011 s⁻¹
  kon: 3.8e+07 M⁻¹ s⁻¹
BMP6 [8]
  Kd: 2.7 nM
  koff: 0.0055 s⁻¹
  kon: 2e+06 M⁻¹ s⁻¹

B2: ActRIIB-Fc:ALK7-Fc heterodimer (Fc fusion)
chain 1: GRGEAETRECIYYNANWELERTNQSGLERCEGEQDKRLHCYASWRNSSGTIELVKKGCWLDDFNCYDRQECVATEENPQVYFCCCEGNFCNERFTHLPEAGGPEVTYEPPPTAPTGGGTHTCPPCPAPELLGGPSVFLFPPKPKDTLMISRTPEVTCVVVDVSHEDPEVKFNWYVDGVEVHNAKTKPREEQYNSTYRVVSVLTVLHQDWLNGKEYKCKVSNKALPAPIEKTISKAKGQPREPQVYTLPPSRKEMTKNQVSLTCLVKGFYPSDIAVEWESNGQPENNYKTTPPVLKSDGSFFLYSKLTVDKSRWQQGNVFSCSVMHEALHNHYTQKSLSLSPGK
chain 2: GLKCVCLLCDSSNFTCQTEGACWASVMLTNGKEQVIKSCVSLPELNAQVFCHSSNNVTKTECCFTDFCNNITLHLPTASPNAPKLGPMETGGGTHTCPPCPAPELLGGPSVFLFPPKPKDTLMISRTPEVTCVVVDVSHEDPEVKFNWYVDGVEVHNAKTKPREEQYNSTYRVVSVLTVLHQDWLNGKEYKCKVSNKALPAPIEKTISKAKGQPREPQVYTLPPSREEMTKNQVSLTCLVKGFYPSDIAVEWESNGQPENNYDTTPPVLDSDGSFFLYSDLTVDKSRWQQGNVFSCSVMHEALHNHYTQKSLSLSPG
notes: also called ActRIIB-Fc:ALK7 heterodimer; ActRIIB-Fc:ALK7-Fc heterodimeric complex
Activin A [9]
  Kd: 0.043 nM
  koff: 0.0019 s⁻¹
  kon: 4.4e+07 M⁻¹ s⁻¹
BMP9 [10]
  Kd: > 1.4 nM
BMP10 [11]
  Kd: 0.19 nM
  koff: 0.0028 s⁻¹
  kon: 1.5e+07 M⁻¹ s⁻¹
Activin B [12]
  Kd: 0.017 nM
  koff: 0.0002 s⁻¹
  kon: 1.2e+07 M⁻¹ s⁻¹
Activin C
  Kd: 6.9 nM
  koff: 0.0024 s⁻¹
  kon: 350000 M⁻¹ s⁻¹
Activin AC
  Kd: 0.22 nM
  koff: 0.00057 s⁻¹
  kon: 2.6e+06 M⁻¹ s⁻¹
GDF3 [13]
  Kd: 4.5 nM
  koff: 0.01 s⁻¹
  kon: 2.3e+06 M⁻¹ s⁻¹
GDF8 [14]
  Kd: 0.27 nM
  koff: 0.001 s⁻¹
  kon: 3.7e+06 M⁻¹ s⁻¹
GDF11 [15]
  Kd: 0.008 nM
  koff: 0.00075 s⁻¹
  kon: 9.5e+07 M⁻¹ s⁻¹
BMP5
  Kd: 57 nM
  koff: 0.0085 s⁻¹
  kon: 150000 M⁻¹ s⁻¹
BMP6 [16]
  Kd: 5.3 nM
  koff: 0.0063 s⁻¹
  kon: 1.2e+06 M⁻¹ s⁻¹

## B3
ActRIIA-mFc [17]
  binding result: binds

B4: ALK7-Fc homodimer (Fc fusion, not shown: a dimerising Fc or GST)
chain: LSPGLKCVCLLCDSSNFTCQTEGACWASVMLTNGKEQVIKSCVSLPELNAQVFCHSSNNVTKTECCFTDFCNNITLHLPTASPNAPKLGPME
notes: the whole extracellular entry is named
Activin A [9]
  binding result: no binding
BMP9 [10]
  binding result: no binding
BMP10 [11]
  binding result: no binding
Activin B [12]
  binding result: no binding
Activin C
  binding result: no binding
Activin AC
  binding result: no binding
GDF3 [13]
  binding result: no binding
GDF8 [14]
  binding result: no binding
GDF11 [15]
  binding result: no binding
BMP5
  binding result: no binding
BMP6 [16]
  binding result: no binding

## B5
ActRIIA-mFc [18]
  binding result: binds

B6: ALK4-Fc homodimer (Fc fusion, not shown: a dimerising Fc or GST)
chain: SGPRGVQALLCACTSCLQANYTCETDGACMVSIFNLDGMEHHVRTCIPKVELVPAGKPFYCLSSEDLRNTHCCYTDYCNRIDLRVPSGHLKEPEHPSMWGPVE
Activin A [1]
  Kd: 20 nM
  koff: 0.012 s⁻¹
  kon: 580000 M⁻¹ s⁻¹
Activin B [4]
  binding result: no binding
